From patent publication US20050074865A1

These substances were tested against recombinant human TNFα (RDI) (human) (UniProt P01375) (assay: cell-based or functional assay).
recombinant human TNFα (RDI) (human), sequence (P01375 77-233 limits assumed): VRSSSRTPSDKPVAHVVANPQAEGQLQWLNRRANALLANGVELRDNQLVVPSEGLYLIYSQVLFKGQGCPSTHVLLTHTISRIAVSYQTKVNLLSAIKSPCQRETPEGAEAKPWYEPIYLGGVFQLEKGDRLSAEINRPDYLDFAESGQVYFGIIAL

TRYPSIN (commercial protease of the screen) (enzyme), sequence (P00760 24-246): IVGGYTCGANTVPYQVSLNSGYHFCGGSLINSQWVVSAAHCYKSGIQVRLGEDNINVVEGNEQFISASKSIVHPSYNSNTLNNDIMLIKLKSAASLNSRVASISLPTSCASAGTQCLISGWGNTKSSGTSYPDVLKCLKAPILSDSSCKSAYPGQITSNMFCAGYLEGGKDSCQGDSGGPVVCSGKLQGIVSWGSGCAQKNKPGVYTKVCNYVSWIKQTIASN
MMP12 (enzyme), sequence (P39900 106-470): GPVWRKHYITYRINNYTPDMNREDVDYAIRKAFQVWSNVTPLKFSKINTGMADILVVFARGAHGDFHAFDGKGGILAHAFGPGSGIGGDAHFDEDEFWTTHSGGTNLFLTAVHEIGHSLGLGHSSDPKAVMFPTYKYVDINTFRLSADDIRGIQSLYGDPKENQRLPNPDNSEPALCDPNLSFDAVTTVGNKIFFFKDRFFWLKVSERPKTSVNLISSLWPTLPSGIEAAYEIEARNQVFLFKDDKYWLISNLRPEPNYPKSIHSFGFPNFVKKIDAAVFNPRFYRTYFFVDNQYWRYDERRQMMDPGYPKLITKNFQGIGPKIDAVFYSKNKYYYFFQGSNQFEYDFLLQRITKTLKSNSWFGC

| Substance | log reduction in TNFα activity at the 50% survival level, L929 cytotoxicity bioassay after overnight digestion [log] |
| --- | --- |
| CHYMOTRYPSIN (enzyme) | 2.74 |
| MT1-MMP (enzyme) | 0.86 |
| MMP12 (enzyme) | 0.65 |
| ELASTASE (enzyme) | 1.45 |
| TRYPSIN (commercial protease of the screen) (enzyme) | 2.3 |
| Tryptase (enzyme) | 0.62 |
